Assay results from patent publication US20240043542A1 (published 2024).
Where a chain is given by its changes, count along the chain named. Where two headings read alike, the source gives them in different places. Each block holds one binder with its values, some of them ahead of it.

Legend:
[1] = target: T1, human B7-H4 on the cell surface (human, UniProt Q7Z7D3 25-282); test: cell-based or functional assay
T1 sequence: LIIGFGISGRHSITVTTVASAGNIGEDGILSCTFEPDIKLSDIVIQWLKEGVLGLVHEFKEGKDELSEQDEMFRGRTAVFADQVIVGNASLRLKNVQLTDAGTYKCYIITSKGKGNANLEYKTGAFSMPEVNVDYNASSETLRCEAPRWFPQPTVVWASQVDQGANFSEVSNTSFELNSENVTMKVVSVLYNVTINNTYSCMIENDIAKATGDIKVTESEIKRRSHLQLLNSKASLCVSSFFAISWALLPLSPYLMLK

[2] = target: T1, human B7-H4 on the cell surface; test: cell-based or functional assay; remark: listed apart in the source
B7-H4 IgV-huIgG1 = target: T2, B7-H4 IgV-huIgG1 (human); test: SPR, protocol of Example 4
T2 construct: also called N-terminal domain of human B7-H4
Protocol: Briefly, anti-human Fab antibody was immobilized on a carboxyl-derivatized SPR chip surface, and anti-B7-H4 antibodies were captured on the resulting surface at 5 ug/ml for 30 seconds.

[3] = target: T1, human B7-H4 on the cell surface; test: flow cytometry, SK-BR-3 cells
Protocol: (§1) The fucosylated and afucosylated anti B7-H4 antibodies were also characterized by flow cytometry. In these experiments, HEK293T cell lines were transfected to express full-length cynomolgus monkey, mouse, or rat B7-H4. In addition, the endogenous human B7-H4 expressing SK-BR-3 breast cancer cell lines were used to assess the cell binding potency of B7-H4 antibodies. […] Following incubation, cells were pelleted, washed, incubated with a secondary labeling antibody, and run on a flow cytometer. Data were analyzed using the FlowJo software. MFI was plotted vs. antibody concentration, and the EC50 cell binding potency was calculated using nonlinear regression curve fit (GraphPad Prism).

[4] = target: T3, cynomolgus monkey B7-H4 on the cell surface (cynomolgus monkey, UniProt Q7Z7D3 25-282 (human entry)); test: flow cytometry, transfected 293 cells
T3 construct: full-length, on transfected HEK293T cells
T3 chain: T1 sequence with L53I, F242L, S252A
Protocol: as §1

[5] = target: T4, mouse B7-H4 on the cell surface (mouse, UniProt Q7TSP5 25-257); test: flow cytometry, transfected 293 cells
T4 construct: full-length, on transfected HEK293T cells
T4 sequence: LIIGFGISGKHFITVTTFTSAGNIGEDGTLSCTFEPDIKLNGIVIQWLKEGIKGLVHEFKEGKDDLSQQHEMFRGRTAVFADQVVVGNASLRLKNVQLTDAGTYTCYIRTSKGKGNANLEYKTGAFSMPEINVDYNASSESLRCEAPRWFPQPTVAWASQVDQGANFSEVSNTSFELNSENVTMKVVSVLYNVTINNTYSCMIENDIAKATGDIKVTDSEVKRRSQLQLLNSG
Protocol: as §1

[6] = target: T5, rat B7-H4 on the cell surface (rat, UniProt Q501W4 25-257); test: flow cytometry, transfected 293 cells
T5 construct: full-length, on transfected HEK293T cells
T5 sequence: T4 sequence with R109H, Q228E
Protocol: as §1

[7] = target: T1, human B7-H4 on the cell surface; test: flow cytometry, SK-BR-3 cells; remark: listed apart in the source
Protocol: Following incubation, cells were pelleted, washed and incubated with a secondary labeling antibody and samples were acquired on a flow cytometer. Data was analyzed using the FlowJo software and MFI was plotted vs. antibody concentration. The EC50 cell binding potency was calculated using nonlinear regression curve fit (GraphPad Prism).

[8] = target: T6, recombinant human B7-H4-huIgG1 (human); test: BLI, antigen on Protein A tips;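 note: Anti-B7-H4 antibodies assessed for affinity toward the B7-H4 extracellular domain using biolayer interferometry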
T6 construct: also called B7-H4-extracellular domain (ECD)
T6 sequence (chain, as listed by the source limits assumed): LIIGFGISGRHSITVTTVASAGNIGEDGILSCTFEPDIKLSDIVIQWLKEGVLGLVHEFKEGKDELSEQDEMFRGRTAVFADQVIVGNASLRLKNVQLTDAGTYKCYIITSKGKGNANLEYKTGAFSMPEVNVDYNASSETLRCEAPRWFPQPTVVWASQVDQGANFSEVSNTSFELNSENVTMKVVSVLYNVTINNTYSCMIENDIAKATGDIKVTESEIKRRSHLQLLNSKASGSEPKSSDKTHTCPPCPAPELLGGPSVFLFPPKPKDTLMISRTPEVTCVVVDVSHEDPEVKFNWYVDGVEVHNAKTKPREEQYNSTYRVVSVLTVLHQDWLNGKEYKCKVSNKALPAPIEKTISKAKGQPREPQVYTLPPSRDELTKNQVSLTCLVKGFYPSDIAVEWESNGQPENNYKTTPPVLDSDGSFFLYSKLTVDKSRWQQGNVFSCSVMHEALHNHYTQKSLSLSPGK
Protocol: (§2) Binding affinities of anti-B7-H4 antibodies to B7-H4-extracellular domain (ECD) were determined by biolayer interferometry (BLI). […] Anti-B7-H4 antibodies were then evaluated for binding.

[9] = target: T7, cynomolgus monkey B7-H4 (recombinant, BLI) (cynomolgus monkey, UniProt Q7Z7D3 25-259 (human entry)); test: BLI, antigen on Protein A tips;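 note: Anti-B7-H4 antibodies assessed for affinity toward the B7-H4 extracellular domain using biolayer interferometry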
T7 construct: also called Cynomolgus B7-H4
T7 sequence: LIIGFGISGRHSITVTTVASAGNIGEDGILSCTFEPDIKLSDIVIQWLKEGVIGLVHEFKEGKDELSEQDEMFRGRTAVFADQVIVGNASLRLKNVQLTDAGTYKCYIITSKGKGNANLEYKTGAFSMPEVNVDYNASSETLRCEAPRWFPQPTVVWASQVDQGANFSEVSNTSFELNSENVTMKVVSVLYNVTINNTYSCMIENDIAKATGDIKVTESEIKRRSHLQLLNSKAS
Protocol: as §2

[10] = target: T8, mouse B7-H4 (recombinant, BLI) (mouse, UniProt Q7TSP5 29-256, limits assumed); test: BLI, antigen on Protein A tips;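 note: Anti-B7-H4 antibodies assessed for affinity toward the B7-H4 extracellular domain using biolayer interferometry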
T8 construct: also called murine B7-H4
T8 sequence: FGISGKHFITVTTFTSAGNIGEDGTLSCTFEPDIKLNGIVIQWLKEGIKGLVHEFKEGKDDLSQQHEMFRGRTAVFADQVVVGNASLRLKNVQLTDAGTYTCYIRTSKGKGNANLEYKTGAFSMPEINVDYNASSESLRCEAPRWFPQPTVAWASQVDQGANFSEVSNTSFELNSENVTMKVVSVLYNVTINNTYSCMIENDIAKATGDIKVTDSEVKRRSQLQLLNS
Protocol: as §2

[11] = target: T4, mouse B7-H4 on the cell surface; test: flow cytometry, transfected HEK293T
[12] = target: T1, human B7-H4 on the cell surface; test: flow cytometry, 100 nM, transfected HEK293T
Protocol: (§3) HEK293T cell lines were transfected to express full-length human, cynomolgus monkey, mouse, or rat B7-H4. In addition, the endogenous human B7-H4 expressing SK-BR-3 breast cancer cell line was used to assess the ability of the antibodies to bind B7-H4 expressed on the cell surface. 1×10⁵ parental HEK293T or transfected HEK293T cell lines were incubated with 100 nM of the B7-H4 antibodies. Following incubation, cells were pelleted, washed, and incubated with a secondary labeling antibody, and samples were acquired on a flow cytometer. Fold binding over the parental cell line (FOP) was calculated as follows: MFI transfected HKE293T cells/MFI parental HEK293T cells.

[13] = target: T3, cynomolgus monkey B7-H4 on the cell …; test: flow cytometry, 100 nM, transfected HEK293T
Protocol: as §3

- aAPC Assay EC50 (IFNγ production) [1]: 1.05 nM
- ADCC Assay EC50 (SK-BR-3 target cells) [2]: 0.0015 nM
- Kd (B7-H4 IgV-huIgG1): 2.01 nM
- koff (B7-H4 IgV-huIgG1): 0.000725 s⁻¹
- kon (B7-H4 IgV-huIgG1): 360000 M⁻¹ s⁻¹
- EC50 [3]: 0.767 nM
- EC50 [4]: 1.77 nM
- EC50 [5]: 1.77 nM
B1: B7-H4 antibody 20506, afucosylated (antibody, human IgG1, kappa, V domains shown)
VH: QLQLQESGPGLVKPSETLSLTCTASGGSISHGGYYWSWIRQHPGKGLEWIGNIYYSGSTYYNPSLKSRVTMSVDTSKNQFSLKLSSVTAADTAVYYCARESSTISADFDLWGRGTLVTVSS
VL: DIQMTQSPSSVSASVGDRVTITCRASQGISRWLAWYQQKPGKAPKLLIYAASSLQSGVPSRFSGSGSGTDFTLTISSLQPEDFATYYCQQAHTFPYTFGGGTKVEIKR
modifications: afucosylated Fc glycan (made in CHO-y cells)
notes: human IgG1/kappa

- aAPC Assay EC50 (IFNγ production) [1]: 0.95 nM
- ADCC Assay EC50 (SK-BR-3 target cells) [2]: 0.0135 nM
- Kd (B7-H4 IgV-huIgG1): 1.93 nM
- koff (B7-H4 IgV-huIgG1): 0.000703 s⁻¹
- kon (B7-H4 IgV-huIgG1): 365000 M⁻¹ s⁻¹
- EC50 [3]: 0.739 nM
- EC50 [4]: 1.77 nM
- EC50 [5]: 1.77 nM
- EC50 [6]: 3.25 nM
B2: B7-H4 antibody 20506, fucosylated (antibody, human IgG1, kappa, V domains shown)
VH: B1 VH
VL: B1 VL
modifications: normally fucosylated Fc glycan (made in CHO-x cells)
notes: human IgG1/kappa

- EC50 [7]: 61.2 nM
- Kd [8]: 9.44 nM
- koff [8]: 0.0272 s⁻¹
- kon [8]: 2.89e+06 M⁻¹ s⁻¹
- Kd [9]: 5.17 nM
- koff [9]: 0.0168 s⁻¹
- kon [9]: 3.25e+06 M⁻¹ s⁻¹
- binding result [10]: no binding
- FOP (fold binding over the parental cell line) [12]: 619 fold
- FOP (fold binding over the parental cell line) [13]: 524 fold
B3: B7-H4 antibody 15495 (antibody, human IgG1, kappa, V domains shown)
VH: QVQLVQSGAEVKKPGSSVKVSCKASGGTFSSYAISWVRQAPGQGLEWMGGIIPIFGTASYAQKFQGRVTITADESTSTAYMELSSLRSEDTAVYYCARQQYDGRRYFGLWGRGTLVTVSS
VL: EIVMTQSPATLSVSPGERATLSCRASQSVSSNLAWYQQKPGQAPRLLIYSASTRATGIPARFSGSGSGTEFTLTISSLQSEDFAVYYCQQVNVWPPTFGGGTKVEIKR
notes: human IgG1/kappa
- binding result [11]: no binding (tested: FOP 10; 100 nM antibody)
